# Results as given in the nanobody polyreactivity screen of Harvey et al. (2022).
# Test: yeast display, Sf9 membrane polyspecificity reagent, FACS + sequencing; frameworks hold sequencing errors
# Summary of the method: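 Polyreactivity labels are assigned by the sorting gate from which each nanobody was recovered. The gates were low and high (top ~1%), set on anti-HA fluorescence for expression and streptavidin fluorescence for reagent binding. Before sorting, galactose-induced (36–48 hours) yeast display cells were stained for 1 hour at 4 °C with 10% biotinylated, detergent-solubilized Sf9 membrane reagent.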
row,Sequence,polyreactivity (PSR sort gate)
1,QVQLVESGGGLVQAGGSLRLSCAASGRTFIENAMGWYRQAPGKERELVAAISRGGSTYYADSVKGRFTMSRDNAKNTVYLQMNSLKPEDTAVYYCAADYFYLFHYSSQKYSRYEYWGQGTQVTVSS,low polyreactivity
2,QVQLVESGGGLVQAGGSLRLSCAASGRTFIGNAMGWYRQAPGKERELVATITSSAGTTYYADSVKGRFTISRDNAKNTVYLQMNSLKPEDTAVYYCAKRIWRSYPYRAYYSEFGYWGQGTQVTVSS,high polyreactivity
3,QVQLVESGGGLVQAGGSLRLSCAASGRTFIIYAMGWYRQAPGKERELVATISIGGSTYADSVKGRFTISRDNAKNTVYLQMNSLKPEDTAVYYCAARGRKYPPRDYWGQGPQVTVSS,high polyreactivity
4,QVQLVESGGGLVQAGGSLRLSCAASGRTFILYAMGWYRQAPWKERELVAAITRRGGRTYYADSVKGRFTISRDNAKNTVYLQMNSLKREDTAVYYCAADQYYYTQPSDMDYWGQGTQVTVSS,high polyreactivity
5,QVQLVESGGGLVQAGGSLRLSCAASGRTFILYTMGWYRQAPGKERELVAAITTGGSTSYADSVKGRVTISRDNAKNTVYLQMNSLKPEDTAVYYCNALSRLRYKPRLYDYWGQGTQVTVSS,low polyreactivity
6,QVQLVESGGGLVQAGGSLRLSCAASGRTFIPYAMGWYRQAPGKERELVAAISYSGGSTYYADSVKGRFTISRDNAKNTVYLQMYSLKPEDTAVYYCNAYYGSYYYDYNYWGQGTQVSVSS,high polyreactivity
7,QVQLVESGGGLVQAGGSLRLSCAASGRTFIRNAMGWYRQAPGKERELVAAISRGGGTYYADSVKGRFTISRDNAKNTVYLQMNSLKPEDTAVYYCAAGFRSPYYWGQGTQVTVSS,high polyreactivity
8,QVQLVESGGGLVQAGGSLRLSCAASGRTFIRNAMGWYRQAPGKERELVASIRRSGGSTYYADSVKGRFTISRDNAKNTVYLQMNSLKPEDTAVYYSAAVHRFLLGYGYWGQGTQVTVSS,high polyreactivity
9,QVQLVESGGGLVQAGGSLRLSCAASGRTFIRYAMGWYRQAPGKESELVAAISSRGGRTHYADSVKGRFTISRDNAKNTVYLQMNSLKPEDTAVYYCAADLTYVTVPGASYDYWGQCTQVTVSS,low polyreactivity
10,QVQLVESGGGLVQAGGSLRLSCAASGRTFIRYAMGWYRQAPGNERELVAAISWSGDRTYYADSVKGRFTISRDNAKNTVYLQMNSLKPEDTAVYYCNAYRYLRTATFLKFDYWGQGTQVTVSS,high polyreactivity
11,QVQLVESGGGLVQAGGSLRLSCAASGRTFIRYTTGWYRQAPGTERELVAAITSTGRTYYADSVKGRFTISRDNAKNTVYLQMNSLKPEDTAVYYCAAEAGYGDYYYGYDYWGQGTQVTVSS,low polyreactivity
12,QVQLVESGGGLVQAGGSLRLSCAASGRTFISNVIGWYRKAPGKERDLVAAITWRGGRTHYADSVKGRFTISRDNAKITVYLQMNSLKPEDTAVYYCAARYIPIQYPSYRTWGGYSWGQGTQVTVSS,high polyreactivity
13,QVQLVESGGGLVQAGGSLRLSCAASGRTFISYAMGWYRQAPGKERELVAGISRGGSTYYADSVKGRFTISRDNAKNTVYLQMNSLKPEDTAVYYCAARRWISSHSYKYGYWGQGTQVTVSS,high polyreactivity
14,QVQLVESGGGLVQAGGSLRLSCAASGRTFIVNTMGWYRQAPGKERELVAAITARGGRTYYADSVKGRFTISRDNAKNTVYLQMNSLKPEDTAVYYCNARTPPREAERYYWGQGTQVTVSS,low polyreactivity
15,QVQLVESGGGLVQAGGSLRLSCAASGRTFIVYAMGWYRQAPGKERELVAAISGRGGGNTYYADSVKGSFTISRDNAKNTVYLQMNSLKPEDTAVYYCAADTYSWYSYRDYYYWGQGTQVTVSS,low polyreactivity
16,QVQLVESGGGLVQAGGSLRLSCAASGRTFIVYAMGWYRQAPGKERELVARISSGSRTSYADSVKGRFTISRDNAKNTVYLQMNSLKPEDTAVYYCAKSRVIKYEFDYWGQGTQVTVSS,low polyreactivity

row,Sequence,polyreactivity (PSR sort gate)
1,QVQLVESGGGLVQAGGSLRLSCAASGRTFIYNTMGWYRQAPGKERELVAAITSGGSTNYADSVKGRFTISRDNAKNTVYLQMNSLKPEDTAVYYCATQGLSAPFDGFVNSRFDHWGQGTQVTVSS,low polyreactivity
2,QVQLVESGGGLVQAGGSLRLSCAASGRTFKAYAMGWYRQAPGKERELVAGISWSGGNTYYADSVKGRFTISRDNAKNTVYLQMNSLKPEDTAVYYCAASLGGLWEDDYWGQGTQVTVSS,high polyreactivity
3,QVQLVESGGGLVQAGGSLRLSCAASGRTFKDYAMGWYRPAPGKERELVAAISWSGGDTYYADSVKGRFTISRDNAKNTVYLQMNSLKPEDTAVYYCNADPSGVFFYSLEFDYWGQGTQVTVSS,low polyreactivity
4,QVQLVESGGGLVQAGGSLRLSCAASGRTFKGNAMGWYRQAPGKEIELVAAISKSGGRTYYADSVKGRFTISRDNAKNTVYLQMNSLKPEDTAVYYCAVDVGPTKVRFGYLGQGTQVTVSS,high polyreactivity
5,QVQLVESGGGLVQAGGSLRLSCAASGRTFKGYAMGWYRQAPGKERELVAAISYRGGSTYYADSVKGRFTISRDKAKKTFYLQMNSLKPEDTAVYYCAADIQPYVYDGYPVGMDYWGQGTQVTVSS,high polyreactivity
6,QVQLVESGGGLVQAGGSLRLSCAASGRTFKHYAMGWYRPAPGKERELVATITNTGGRTNYADSVKGRFTISRDNAKNTVYLQMYSLKPEDTAVYYCNRVNDYYRPGGRPFGIFDYWGQGTQVTVSS,low polyreactivity
7,QVQLVESGGGLVQAGGSLRLSCAASGRTFKKYAMGWYRQAPGKERELVAAISWSGGTTYYADSVKGRFTISRDNAKNTVYLQMNSLKPEDTAVYYCAARVSRTGHGYYYFWGQGTQVTVSS,high polyreactivity
8,QVQLVESGGGLVQAGGSLRLSCAASGRTFKKYAMGWYRQAPGKERELVAAITGSGGSTYYADSVKVRYTISRDNAKNTVYLQMNSLKPEDTAVYYCAAYAYGVGHSQDGGNYWGQCTQVTVSS,low polyreactivity
9,QVQLVESGGGLVQAGGSLRLSCAASGRTFKPYAMGWYRQAPGKERELVAAISSRGTSTNYADSVKGRFTISRDNAKNTVYLQMNSLKPEDTAVYYCNRVLLPGPQYQWGKAYDYWGQGTQVTVSS,high polyreactivity
10,QVQLVESGGGLVQAGGSLRLSCAASGRTFKRYAMGWYRQAPGKERELVAAISWSGTSTHYADSVKGRFTISRDNAKNTVYLQMNSLKPEDTAVYYCAARRYPVLNYDYWGQGTQVNVSS,high polyreactivity
11,QVQLVESGGGLVQAGGSLRLSCAASGRTFKSNAMRWYRQAPGKERELVATISRGGGSTYYADSVKGRFTISRDNAKNTVYLQMNSLKPEDTAVYYCAIGSNSYLRYHYTYPYDYWGQGTQVTVSS,high polyreactivity
12,QVQLVESGGGLVQAGGSLRLSCAASGRTFKSYAMGWYRQAPGKERELVAAISRSSGSTYYADSVKGRFTISRDNAKNTVYLQMNSLKPEDTAVYYCATTKRVGYNYWGQGTQVTVSS,high polyreactivity
13,QVQLVESGGGLVQAGGSLRLSCAASGRTFKSYTLGWYRQAPGKEREFVAAISSRGGNTYYADSVNGRFTISRDNAKNTVYLQMNSLKPEDTAVYYSAAESSFWSFPTYDYWGQGTQVTVSS,high polyreactivity
14,QVQLVESGGGLVQAGGSLRLSCAASGRTFKTYARGWYREAPGKERELVAAISRDGRTYYADSVKGRFTISRDNAKNTVYLQRNSLKPEDTAVYYCAVGIYDHLYNHEYWGQGTQVTVSS,low polyreactivity
15,QVQLVESGGGLVQAGGSLRLSCAASGRTFKTYTMGWYRQEPGKERELVAVISSGGGSTNYADSVKGRFTISRDNAKNTVYLQMNSLKPEDTAVYYCAARKTGRPKYRYDYWGQGTQVTVSS,low polyreactivity
